Four molecules from patent publication US20210179689A1 (SHATTUCK LABS, published 2021) can be followed below.

The target in test [1] is T1, human CD40 (human, UniProt P25942 21-193).
T1 construct: also called hCD40
The test can be described thus: Octet biolayer interferometry; Loading Sample ID hCD40-his; Full R^2 0.9682.

The target in test [2] is T2, murine CD40 (murine, UniProt P27512 20-193, limits assumed).
T2 construct: also called mCD40
T2 sequence (looked up): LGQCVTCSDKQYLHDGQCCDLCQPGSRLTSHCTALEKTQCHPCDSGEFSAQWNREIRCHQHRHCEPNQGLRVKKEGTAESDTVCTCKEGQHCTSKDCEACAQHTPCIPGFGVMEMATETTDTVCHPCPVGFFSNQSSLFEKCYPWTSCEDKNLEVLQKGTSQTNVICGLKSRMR
The test can be described thus: Octet biolayer interferometry; Loading Sample ID mCD40-his; Full R^2 0.7077.

Test [3] deals with T2, murine CD40. The test can be described thus: Octet biolayer interferometry; Loading Sample ID mCD40-his; kdis(1/s); Full R^2 0.7077.
The target of test [4] is T1, human CD40. The experiment in a line: Octet biolayer interferometry; Loading Sample ID hCD40-his; kdis(1/s); Full R^2 0.9682.
The target in test [5] is T1, human CD40. The test can be described thus: Octet biolayer interferometry; Loading Sample ID hCD40-his; Full R^2 0.9393.
Test [6] addresses T1, human CD40. The experiment in a line: Octet biolayer interferometry; Loading Sample ID hCD40-his; Full R^2 0.9810.
For test [7], the target named is T2, murine CD40. The experiment in a line: Octet biolayer interferometry; Loading Sample ID mCD40-his; Full R^2 0.9955.
The target in test [8] is T1, human CD40. The experiment in a line: Octet biolayer interferometry; Loading Sample ID hCD40-his; kdis(1/s); Full R^2 0.3080.
Test [9] addresses T2, murine CD40. The experiment in a line: Octet biolayer interferometry; Loading Sample ID mCD40-his; kdis(1/s); Full R^2 0.9955.
Test [10] has as its target murine galectin-9 (murine) (UniProt O08573). The experiment in a line: Octet biolayer interferometry; Loading Sample ID mGal9; kdis(1/s); Full R^2 0.9866.
Test [11] addresses human galectin-9 (human) (UniProt O00182). The experiment in a line: Octet biolayer interferometry; Loading Sample ID hGal9; Full R^2 0.9934.
Test [12] concerns the target murine galectin-9 (murine) (UniProt O08573). The experiment in a line: Octet biolayer interferometry; Loading Sample ID mGal9; kdis(1/s); Full R^2 0.9973.
The target is the same in test [13]. The test can be described thus: Octet biolayer interferometry; Loading Sample ID mGal9; Full R^2 0.9866.
Test [14] has as its target T1, human CD40. The experiment in a line: Octet biolayer interferometry; Loading Sample ID hCD40-his; kdis(1/s); Full R^2 0.9810.
In test [15] the target is T1, human CD40. The experiment in a line: Octet biolayer interferometry; Loading Sample ID hCD40-his; Full R^2 0.3080.
Test [16] has as its target mIgG Fc gamma. The experiment in a line: sandwich ELISA: coat mIgG Fc gamma, detection goat anti-mouse Fc (H+L) HRP.
Test [17] has as its target recombinant mouse CD40-Fc protein (mouse) (UniProt P27512). The experiment in a line: ELISA: coat mCD40-Fc, detection anti-mCD40L and an HRP conjugate.
The target of test [18] is T2, murine CD40. The test can be described thus: Octet biolayer interferometry; Loading Sample ID mCD40-his; kdis(1/s); Full R^2 0.7890.
Test [19] deals with T2, murine CD40. The test can be described thus: Octet biolayer interferometry; Loading Sample ID mCD40-his; Full R^2 0.7890.
Test [20] has as its target human galectin-9 (human) (UniProt O00182). The test can be described thus: Octet biolayer interferometry; Loading Sample ID hGal9; kdis(1/s); Full R^2 0.9934.
Test [21] has as its target murine galectin-9 (murine) (UniProt O08573). The experiment in a line: Octet biolayer interferometry; Loading Sample ID mGal9; Full R^2 0.9973.
Test [22] concerns the target T1, human CD40. The test can be described thus: Octet biolayer interferometry; Loading Sample ID hCD40-his; kdis(1/s); Full R^2 0.9393.
In test [23] the target is mIgG Fc gamma. The test can be described thus: sandwich ELISA: coat mIgG Fc gamma, detection goat anti-mouse Fc (H+L) HRP; standard: mouse whole IgG.
The target of test [24] is T1, human CD40. The test can be described thus: Octet biolayer interferometry; Loading Sample ID hCD40-his; Full R^2 0.5111.
Test [25] concerns the target T1, human CD40. The test can be described thus: Octet biolayer interferometry; Loading Sample ID hCD40-his; kdis(1/s); Full R^2 0.5111.
The target in test [26] is T2, murine CD40. The experiment in a line: Octet biolayer interferometry; Loading Sample ID mCD40-his; Full R^2 0.9077.
The target of test [27] is T2, murine CD40. The test can be described thus: Octet biolayer interferometry; Loading Sample ID mCD40-his; KD and kdis cells blank; Full R^2 0.6015.
For test [28], the target named is T2, murine CD40. The test can be described thus: Octet biolayer interferometry; Loading Sample ID mCD40-his; kdis(1/s); Full R^2 0.9077.

T1 sequence (P25942 21-193 limits assumed): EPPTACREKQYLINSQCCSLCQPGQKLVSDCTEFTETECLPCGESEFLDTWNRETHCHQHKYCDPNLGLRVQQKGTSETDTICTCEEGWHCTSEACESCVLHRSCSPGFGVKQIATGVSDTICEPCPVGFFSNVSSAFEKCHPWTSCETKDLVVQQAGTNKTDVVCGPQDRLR
Chain of murine galectin-9 (murine) (O08573 other isoform, or with tags, fused parts or gaps limits assumed): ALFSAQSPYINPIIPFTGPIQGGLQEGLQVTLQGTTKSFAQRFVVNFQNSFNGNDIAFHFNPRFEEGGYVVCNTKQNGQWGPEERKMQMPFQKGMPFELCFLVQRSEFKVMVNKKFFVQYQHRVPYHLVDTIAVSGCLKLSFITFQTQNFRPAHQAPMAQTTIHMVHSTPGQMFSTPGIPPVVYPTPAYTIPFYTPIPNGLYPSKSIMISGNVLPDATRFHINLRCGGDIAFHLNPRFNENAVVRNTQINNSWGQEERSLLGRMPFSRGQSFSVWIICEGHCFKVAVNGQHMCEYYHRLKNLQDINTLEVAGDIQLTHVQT
Chain of human galectin-9 (human) (O00182 other isoform, or with tags, fused parts or gaps limits assumed): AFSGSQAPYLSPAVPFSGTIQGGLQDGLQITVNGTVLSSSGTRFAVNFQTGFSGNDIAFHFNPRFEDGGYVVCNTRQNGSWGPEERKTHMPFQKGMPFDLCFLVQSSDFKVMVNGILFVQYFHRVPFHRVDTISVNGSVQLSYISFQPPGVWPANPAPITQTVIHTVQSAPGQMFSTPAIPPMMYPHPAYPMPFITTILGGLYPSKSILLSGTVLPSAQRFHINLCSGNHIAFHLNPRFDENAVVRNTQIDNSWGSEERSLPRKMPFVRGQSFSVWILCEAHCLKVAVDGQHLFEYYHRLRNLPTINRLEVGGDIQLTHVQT

hCD40L-Fc (Fc fusion): the Kd with human CD40 [1] worked out at 6.18 nM; with murine CD40 [2] it was 10.6 nM. The kon worked out at 120000 M⁻¹ s⁻¹ with human CD40 [1] and 229000 M⁻¹ s⁻¹ with murine CD40 [2]. Also, the results for the koff with murine CD40 [3] and with human CD40 [4] were 0.00241 s⁻¹ and 0.000734 s⁻¹, respectively.

Consider “mTIM-3-Fc-CD40L chimeric protein (from UniProt Q8VIM0 20-193; P27548 47-260) (Fc fusion)”, for which the Kd came to 9.46 nM in the test with human CD40 [5]; 3 nM with human CD40 [6]; 8.92 nM with murine CD40 [7]; 69 nM with human galectin-9 (human) [11]; 7.07 nM in [13]; 9.37 nM with human CD40 [15]. Besides, the figures for the Kd (with murine CD40 [19]; in [21]) were 29.9 nM and 16.7 nM, respectively. The kon turned out to be 59400 M⁻¹ s⁻¹ with human CD40 [5]; 30600 M⁻¹ s⁻¹ in the test with human CD40 [6]; 33700 M⁻¹ s⁻¹ with murine CD40 [7]; 114000 M⁻¹ s⁻¹ in test [13]; 79200 M⁻¹ s⁻¹ with murine CD40 [19]; 58500 M⁻¹ s⁻¹ in [21]. Moreover, the koff with human CD40 [8] was found to be 0.00103 s⁻¹; in the test with murine CD40 [9], 0.000295 s⁻¹; in [10] it was 0.000803 s⁻¹; in test [12] it was 0.00098 s⁻¹; with human CD40 [14] it was 0.000103 s⁻¹; with murine CD40 [18] it was 0.00286 s⁻¹. In addition, the koff is 0.00108 s⁻¹ in the test with human galectin-9 (human) [20] and 0.000733 s⁻¹ in the test with human CD40 [22]. The EC50 (read off the curve) with mIgG Fc gamma [16] is 4 nM; in [17], 10 nM.

mouse IgG (antibody): the EC50 (read off the curve) in the test with mIgG Fc gamma [23] was 2 nM.

B1: mCD40L-Fc fusion protein (Fc fusion, murine, UniProt P27548 112-260, looked up)
chain: MQRGDEDPQIAAHVVSEANSNAASVLQWAKKGYYTMKSNLVMLENGKQLTVKREGLYYVYTQVTFCSNREPSSQRPFIVGLWLKPSSGSERILLKAANTHSSSQLCEQQSVHLGGVFELQAGASVFVNVTEASQVIHRVGFSSFGLLKL
notes: also called recombinant mCD40L-Fc protein; not shown: Fc part
As for B1, the Kd in the test with human CD40 [24] was determined as 4.8 nM; with murine CD40 [26], 14.1 nM. Further, the association rate constant (kon) with human CD40 [24] worked out at 220000 M⁻¹ s⁻¹; in the test with murine CD40 [26], 81500 M⁻¹ s⁻¹; in the test with murine CD40 [27], 118000 M⁻¹ s⁻¹. The koff was found to be 0.00115 s⁻¹ with human CD40 [25] and 0.00114 s⁻¹ in the test with murine CD40 [28].
